Measurements from US7112333B1, “T cell epitopes of ryegrass pollen allergen” (Heska Corporation, priority 1994, dated 2006).

Tests used:
Lol p V reactive T Cells = assay: T cell proliferation (tritiated thymidine) of Lol p V-primed T cell lines from grass-allergic patients; type: cell-based, human; details: one allergic patient; results not shown
Description: As discussed in Example 2, human T cell stimulating activity can be tested by culturing T cells obtained from an individual sensitive to Lol p V allergen, (i.e., an individual who has an IgE mediated immune response to Lol p V allergen) with a peptide derived from the allergen and determining whether proliferation of T cells occurs in response to the peptide as measured, e.g., by cellular uptake of tritiated thymidine. Stimulation indices for responses by T cells to peptides can be calculated as the maximum CPM in response to a peptide divided by the control CPM. A stimulation index (S.I.) equal to or greater than two times the background level is considered “positive”. […]
In addition, preferred peptides have a positivity index (P.I.) of at least about 60, more preferably about 100, more preferably at least about 200 and most preferably at least about 300. The positivity index for a peptide is determined by multiplying the mean T cell stimulation index by the percent of individuals, in a population of individuals sensitive to ryegrass pollen (e.g., preferably a population of at least 15 individuals, more preferably a population of at least 30 individuals or more), who have a T cell stimulation index to such peptide of at least 2.0. […]
This amount of priming antigen was determined to be optimal for the activation of T cells from most grass-allergic patients. […]

human IgE [1] = assay: Direct ELISA of human IgE binding to coated antigen
Experimental: (§1) To examine the importance of Lol p V, both direct and competition ELISA assays were performed. In the direct ELISA, 100 μl of 10 μg/ml of antigen in Phosphate Buffered Saline, pH 7.4 (PBS) was used to coat Immulon II (Dynatech, Chantilly, Va.) 96 well plates for 4 hours at room temperature (RT) or overnight (O/N) at 4° C. In between each step the plates were washed 3× with PBS-T. The excess coating antigen(s) was removed and the wells blocked with 300 μl/well 0.5% gelatin +1 mg/ml PVP in PBS for 1 hour at RT. Serially diluted patient plasma or the diluent PBS+0.05% Tween^−20 was incubated in at 100 μl/well in duplicate wells overnight at 4° C. […] Plates were read on a MR7000 plate reader (Dynatech, Chantilly, Va.) with a 450 nm filter. The absorbance levels of duplicate wells were averaged. The results were graphed as absorbance vs. dilution. […] The results are plotted as the absorbance vs. the log of the concentration of competing antigen.
For the direct ELISA, wells were coated with either soluble pollen extract (SPE) of ryegrass pollen or rLol p V (purified native Lol p V may have a small amount of Lol p I; use of recombinant material assures that the IgE binding is only to Lol p V) and human IgE antibody binding to these antigens was analyzed. […]

[2] = system: human basophil mediator release; assay: Histamine release assay on whole blood of a ryegrass allergic individual; type: cell-based; details: one ryegrass allergic individual; whole heparinized blood; 37° C., 30 minutes; FIG. 12
Experimental: A histamine release assay was performed on one ryegrass allergic individual, using Lol p SPE and rLol p V as the added antigens. This assay is a measure of IgE reactivity through human basophil mediator release, and it is based on the detection of an acylated derivative of histamine using a specific monoclonal antibody (Morel, A. M. and Delaage, M. A.; 1988, J. Allergy Clin. Immunol. 82: 646–654). The reagents for this radioimmunoassay are sold as a kit by Amac Inc. (Westbrook, Me.). Whole heparinized blood drawn from a grass allergic individual and then […] aliquots were mixed with an equal amount of the grass antigens SPE and rLol p V at various concentrations or the diluent, PACM buffer (25 mM PIPES, 100 mM NaCl, 5 mM KCL, 4 mM CaCl2, 1 mM MgCl2, 0.003% HSA, pH7.3) in 1.5 ml polypropylene. The release reactions were carried out at 37° C. for 30 minutes. After this incubation the samples were centrifuged at 1500 RPM for 3 minutes and the supernatants removed. For the total histamine release, 0.1 ml of blood was added to 0.9 ml of PACM buffer, vortexed, and then boiled for 3 minutes. The samples were spun at 13000 RPM and the supernatant removed for analysis. Duplicate samples were used to measure total release. All of the supernatants are diluted 1:4 in acylation buffer and the remainder of the assay is performed according to the manufacturer's instructions.

human IgE [3] = assay: Competition ELISA for IgE binding to ryegrass pollen SPE; details: IgE source PHP-A or individual patient plasma; FIGS. 10 and 11
Experimental: as §1
In the competition assay, ELISA wells were coated with ryegrass pollen SPE and then allergic patient IgE binding was measured in the presence of competing ryegrass pollen SPE, purified native Lol p V, or rLol p V. The source of allergic IgE in this assay was PHP-A (FIG. 10) or individual patient plasma (FIG. 11). […]

specific IgE = details: immunoblotting; WO 93/04174, page 65; cited from earlier work

IgE binding in direct ELISA (human IgE [1]; IgE source PHP-A, PHP-B or four individual patients, FIGS. 6-9) | IgE binding in direct ELISA (reactivity to Lol p V peptides) (human IgE [1]; IgE source PHP-B, preliminary assay, FIG. 13a and 13b) | Molecule | T cell proliferative response of one patient (Lol p V reactive T Cells) | histamine release [2] | competition for IgE binding to ryegrass pollen SPE (human IgE [3]) | ryegrass pollen sensitive patients possessing specific IgE antibody that bound (specific IgE)
high IgE binding | very high IgE binding | rLol p V: bacterially expressed recombinant Lol p V encoded by clone 12R, with His6 sequence (protein) MHHHHHHMAVQKYTVALFLAVALVAGPAASYAADAGYTPAAAATPATPAATPAAAGGKATTDEQKLLEDVNAGFKAAVAAAANAPPADKFKIFEAAFSESSKGLLATSAAKAPGLIPKLDTAYDVAYKAAEGATPEAKYDAFVTALTEALRVIAGALEVHAVKPATEEVPAAKIPTGELQIVDKIDAAFKIAATAANAAPTNDKFTVFESAFNKALNECTGGAYETYKFIPSLEAAVKQAYAATVAAAPEVKYAVFEAALTKAITAMTQAQKAGKPAAAAATGAATVATGAATAAAGAATAAAGGYKA | responds well | strong histamine release over a wide concentration range | – | –
– | – | Lol p V: major ryegrass (Lolium perenne) pollen protein allergen (protein) MHHHHHHMAVQKYTVALFLAVALVAGPAASYAADAGYTPAAAATPATPAATPAAAGGKATTDEQKLLEDVNAGFKAAVAAAANAPPADKFKIFEAAFSESSKGLLATSAAKAPGLIPKLDTAYDVAYKAAEGATPEAKYDAFVTALTEALRVIAGALEVHAVKPATEEVPAAKIPTGELQIVDKIDAAFKIAATAANAAPTNDKFTVFESAFNKALNECTGGAYETYKFIPSLEAAVKQAYAATVAAAPEVKYAVFEAALTKAITAMTQAQKAGKPAAAAATGAATVATGAATAAAGAATAAAGGYKA | – | – | significant portion of IgE against Lol p SPE is specific for Lol p V | 80%
– | – | purified native Lol p V: Lol p V allergens affinity-purified from ryegrass pollen on mAb 1B9 column (protein, non-natural residues) ADAGYTPAAAATPATPAATPAAAGGKATTDEQKLLEDVNAGFKAAVAAAANAPPADKFKIFEAAFSESSKGLLATSAAKAPGLIPKLDTAYDVAYKAAEGATPEAKYDAFVTALTEALRVIAGALEVHAVKPATEEVPAAKIPTGELQIVDKIDAAFKIAATAANAAPTNDKFTVFESAFNKALNECTGGAYETYKFIPSLEAAVKQAYAATVAAAPEVKYAVFEAALTKAITAMTQAQKAGKPAAAAATGAATVATGAATAAAGAATAAAGGYKA | responds well | – | – | –
